According to the supplement of paper PMC10065799, “High-throughput profiling of sequence recognition by tyrosine kinases and SH2 domains using bacterial peptide display” (eLife, 2023):

The sequences below were run on AncSZ (assay: phosphorylation enrichment, bacterial display (enrichment ratio); higher = better substrate or ligand; peptides without Tyr show the background).
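Also: 11-residue human phosphosite peptides and single-mutation variants displayed on the E. coli surface, counted by deep sequencing, each peptide's frequency after selection divided by its frequency in the unselected input library; frequency after pTyr selection over input frequency; kinase dosed for 20-30% of maximal phosphorylation in three min.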

Sequence	phosphorylation enrichment
TYGVLYKARNK [CDK2_Y19_V18L]	0.539
FADIAYNYRDG [PAH_Y166_H170D]	0.942
RLLREYQELMN [KRT75_Y434]	0.759
ETCLAYREKRI [TEKT1_Y118]	1.07
RDMNACIRPSP [MMAA_Y207_Y207C]	1.12
RVQQIYSDSDL [MIB1_Y376]	1.32
SGVVPYEPPEV [TP53_Y220_V216G]	1.12
LFSLGYHQSRW [GANAB_Y396]	1.04
NQNIGYELGHR [KCNN3_Y268_K269E]	0.496
IRQDDYESLKE [MTR_Y921_H920D]	1.32
GVLKEYGEKVL [CPS1_Y529_V531E]	0.742
MILSAYALGGL [CPS1_Y590_R587L]	0.894
LAIELYVVVCK [RHO_Y136_R135L]	2.14
YALAEYTEVKT [ALDH1A3_Y497]	1.29
ADARMYGVLPR [PLP1_Y207_W212R]	0.598
LEQRPYRRGSE [KCNJ12_Y427_E430G]	0.651
CTTIHYNFVCN [TP53_Y234_M237V_YF]	0.998

Sequence	phosphorylation enrichment
GGDVIYKGFED [NFU1_Y194]	0.871
LRSRVYEVPVE [SLC26A3_Y756_N753S]	1.01
KSELAYEIFDK [MYOM2_Y1024]	2
CTTIHYNFMGN [TP53_Y234_C238G_YF]	0.926
AVLVQYYMEHH [PTPN11_Y80_E76V]	0.987
RNYGTYTAGLS [RHBDD1_Y264_D262G]	0.781
MGGSLYFSYPD [HIKESHI_Y55_V54L]	1.49
HAVFVYDICHV [TWNK_Y508_YF]	1.88
LARNMYDKEYY [MET_Y1230_D1228N]	1.13
LLANAYIFDVQ [L1CAM_Y418_V421D_YF]	1.73
RLLRGHDQFAF [HLA-B_Y137_YF]	0.388
IDFARYWHGND [MMP11_Y162_D166N]	0.918
EVEFEYPFRLH [SYP_Y73]	1
FRQNGYIPGSN [PCDHGA1_Y895_V894G_YF]	0.5
DAVKHYMQFRK [CNGA2_Y395]	0.46
YGPPQYNIQYS [ERBB2IP_Y977]	0.989

Each sequence was assayed against EPHB1 (UniProt P54762) in the same assay as above.
Chain of EPHB1 (P54762 whole entry, looked up): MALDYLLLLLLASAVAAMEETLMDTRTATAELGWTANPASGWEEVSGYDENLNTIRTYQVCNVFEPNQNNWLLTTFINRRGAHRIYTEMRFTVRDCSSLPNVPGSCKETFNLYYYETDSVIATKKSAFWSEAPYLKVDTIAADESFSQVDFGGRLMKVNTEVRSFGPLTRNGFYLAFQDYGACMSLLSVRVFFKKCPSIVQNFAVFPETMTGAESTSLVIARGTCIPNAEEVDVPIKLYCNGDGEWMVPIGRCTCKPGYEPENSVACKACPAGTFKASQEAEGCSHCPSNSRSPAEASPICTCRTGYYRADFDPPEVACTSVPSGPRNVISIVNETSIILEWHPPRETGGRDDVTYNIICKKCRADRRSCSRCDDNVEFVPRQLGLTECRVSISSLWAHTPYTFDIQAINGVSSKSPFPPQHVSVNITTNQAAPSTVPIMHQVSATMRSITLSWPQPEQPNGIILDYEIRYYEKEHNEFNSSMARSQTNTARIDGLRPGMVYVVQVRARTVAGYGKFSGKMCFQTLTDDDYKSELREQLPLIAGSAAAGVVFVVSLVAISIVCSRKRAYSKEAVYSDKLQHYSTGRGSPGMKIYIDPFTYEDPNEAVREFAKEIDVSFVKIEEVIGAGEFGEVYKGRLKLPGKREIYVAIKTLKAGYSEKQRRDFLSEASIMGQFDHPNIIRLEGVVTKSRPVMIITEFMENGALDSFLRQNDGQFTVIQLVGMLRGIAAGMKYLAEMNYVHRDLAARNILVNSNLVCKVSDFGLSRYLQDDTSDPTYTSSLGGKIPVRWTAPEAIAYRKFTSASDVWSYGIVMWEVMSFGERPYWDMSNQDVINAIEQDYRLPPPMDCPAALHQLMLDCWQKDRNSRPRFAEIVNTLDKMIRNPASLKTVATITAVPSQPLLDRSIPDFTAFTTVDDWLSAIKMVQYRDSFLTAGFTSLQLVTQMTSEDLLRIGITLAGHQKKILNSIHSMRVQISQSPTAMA

Sequence	phosphorylation enrichment
TYGVLYKARNK [CDK2_Y19_V18L]	0.398
FADIAYNYRDG [PAH_Y166_H170D]	0.404
RLLREYQELMN [KRT75_Y434]	0.691
ETCLAYREKRI [TEKT1_Y118]	0.466
RDMNACIRPSP [MMAA_Y207_Y207C]	1.06
RVQQIYSDSDL [MIB1_Y376]	1.45
SGVVPYEPPEV [TP53_Y220_V216G]	0.581
LFSLGYHQSRW [GANAB_Y396]	0.647
NQNIGYELGHR [KCNN3_Y268_K269E]	0.449
IRQDDYESLKE [MTR_Y921_H920D]	0.633
GVLKEYGEKVL [CPS1_Y529_V531E]	0.42
MILSAYALGGL [CPS1_Y590_R587L]	0.655
LAIELYVVVCK [RHO_Y136_R135L]	2.12
YALAEYTEVKT [ALDH1A3_Y497]	0.651
ADARMYGVLPR [PLP1_Y207_W212R]	0.378
LEQRPYRRGSE [KCNJ12_Y427_E430G]	0.348
CTTIHYNFVCN [TP53_Y234_M237V_YF]	0.678

Sequence	phosphorylation enrichment
GGDVIYKGFED [NFU1_Y194]	0.425
LRSRVYEVPVE [SLC26A3_Y756_N753S]	0.773
KSELAYEIFDK [MYOM2_Y1024]	0.596
CTTIHYNFMGN [TP53_Y234_C238G_YF]	0.565
AVLVQYYMEHH [PTPN11_Y80_E76V]	2.43
RNYGTYTAGLS [RHBDD1_Y264_D262G]	0.804
MGGSLYFSYPD [HIKESHI_Y55_V54L]	4.44
HAVFVYDICHV [TWNK_Y508_YF]	1.49
LARNMYDKEYY [MET_Y1230_D1228N]	0.482
LLANAYIFDVQ [L1CAM_Y418_V421D_YF]	0.933
RLLRGHDQFAF [HLA-B_Y137_YF]	0.327
IDFARYWHGND [MMP11_Y162_D166N]	0.556
EVEFEYPFRLH [SYP_Y73]	0.564
FRQNGYIPGSN [PCDHGA1_Y895_V894G_YF]	0.396
DAVKHYMQFRK [CNGA2_Y395]	0.359
YGPPQYNIQYS [ERBB2IP_Y977]	0.412
